molecular target: purified MHC (MHC II molecules purified by affinity chromatography); experiment: competition with a radiolabelled known MHC binding peptide for purified MHC

IC50 [µM]	Binder
2.99	PYPHPRLPYTQPQPF [P3c (SEQ ID NO: 46), modified alpha gliadin 15-mer peptide]
11.2	LQLQPFWQPKLPGPQ [P1g (SEQ ID NO: 38), modified alpha gliadin 15-mer peptide]
1.99	PYSQPESPYMQPQPF [P3d (SEQ ID NO: 47), modified alpha gliadin 15-mer peptide]
5.44	LQLQPFDQPRLPWPQ [P1f (SEQ ID NO: 37), modified alpha gliadin 15-mer peptide]
3.75	KLPYPQGRLPGPQPQ [P2g (SEQ ID NO: 43), modified alpha gliadin 15-mer peptide]
0.879	PYPHPWLRGPQPQPF [P3f (SEQ ID NO: 48), modified alpha gliadin 15-mer peptide]
